Experiment [1] concerns the target T1, full length human OX40L expressed on CHO cells (human, UniProt P23510 1-183).
T1 sequence: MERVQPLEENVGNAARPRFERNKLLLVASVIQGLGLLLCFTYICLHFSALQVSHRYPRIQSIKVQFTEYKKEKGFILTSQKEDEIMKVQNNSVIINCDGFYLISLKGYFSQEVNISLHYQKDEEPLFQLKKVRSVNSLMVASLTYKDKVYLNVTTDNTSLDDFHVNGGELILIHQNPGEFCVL
The experiment is described as follows: cell-based or functional assay.

Experiment [2] has as its target T1, full length human OX40L expressed on …. Description: cell-based or functional assay. The source holds these as a separate data set.
Experiment [3] has the same target. Description: cell-based or functional assay. This is another data set of the same source.
Experiment [4] addresses T2, biotinylated hOX40L (R&D Systems, biotinylated in house) (human, UniProt P23510 51-183, biotinylated with Sulfo-NHS-LC-Biotin, sites not stated).
T2 construct: same bought protein as m10, biotinylated; also called biotinylated OX40L
T2 sequence: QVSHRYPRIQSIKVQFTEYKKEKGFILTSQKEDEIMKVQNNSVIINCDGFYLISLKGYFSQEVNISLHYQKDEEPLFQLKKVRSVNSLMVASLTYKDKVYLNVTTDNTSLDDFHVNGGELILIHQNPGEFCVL
Description: AlphaScreen, 120 pM biotinylated hOX40L + 0.2 nM hOX40/Fc. On the procedure:
(§1) Next, streptavidin donor beads were added and incubated for an additional 1 hour. Fluorescence was measured by reading plates on the EnVision Multilabel Plate Reader using an excitation wavelength of 680 nm and an emission wavelength of 520 nm.
(In Alpha technology, singlet oxygen from a donor bead excites a nearby acceptor bead.)

The target of experiment [5] is T1, full length human OX40L expressed on …. Description: competition FACS, 3.1 nM hOX40/Fc on hOX40L expressing cells.
Experiment [6] deals with T3, recombinant human OX40L (extracellular domain, R&D Systems) (human, UniProt P23510 51-183).
T3 sequence: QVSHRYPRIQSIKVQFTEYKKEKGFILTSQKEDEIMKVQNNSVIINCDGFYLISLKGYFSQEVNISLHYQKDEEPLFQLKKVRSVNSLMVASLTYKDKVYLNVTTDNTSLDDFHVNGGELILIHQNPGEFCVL
The experiment is described as follows: cell-based or functional assay.

Experiment [7] has as its target T2, biotinylated hOX40L (R&D Systems, …). The experiment is described as follows: hOX40L/hOX40 AlphaScreen, assay 1, native. As for the experimental part:
Next, streptavidin donor beads were added and incubated for an additional 1 hour. Fluorescence was measured by reading plates on the EnVision Multilabel Plate Reader using an excitation wavelength of 680 nm and an emission wavelength of 520 nm. […]

Experiment [8] shares this target. Description: hOX40L/hOX40 AlphaScreen, assay 2, native. As for the experimental part: as §1
(§2) In the TSA assay, Nanobodies were diluted to a concentration of 0.2 mg/ml and melting temperature (Tm) was determined at different pH by stepwise increase in temperature in presence of Sypro Orange, a dye that binds to […] residues that become exposed upon unfolding of the protein, using the Lightcycler (Roche) for detection. […] In SEC analysis, the Nanobodies were analyzed on a Phenomenex matrix to allow detection of multimers, aggregates or ‘stickyness’.

For experiment [9] the target is unchanged. Description: hOX40L/hOX40 AlphaScreen, assay 2, heated at Tm+10 C. On the procedure: as §1, §2
In experiment [10] the target is T3, recombinant human OX40L (extracellular …). Description: cell-based or functional assay. The source holds these as a separate data set.
Experiment [11] concerns the target T2, biotinylated hOX40L (R&D Systems, …). Description: hOX40L/hOX40 AlphaScreen, native sample. On the procedure: as §1, §2
Experiment [12] has the same target. The experiment is described as follows: hOX40L/hOX40 AlphaScreen, sample heated 1 min at Tm+10 C. As for the experimental part: as §1, §2

Like-named read-outs stand apart in the source and are kept apart here.

The source of these data is patent publication US20150218281A1 (Ablynx, published 2015).

B1: benchmark OX40L blocking mAb (benchmark IgG) (antibody, V domains shown)
VH: EVQLLESGGGLVQPGGSLRLSCAASGFTFNSYAMSWVRQAPGKGLEWVSIISGSGGFTYYADSVKGRFTISRDNSRTTLYLQMNSLRAEDTAVYYCAKDRLVAPGTFDYWGQGALVTVSS
VL: DIQMTQSPSSLSASVGDRVTITCRASQGISSWLAWYQQKPEKAPKSLIYAASSLQSGVPSRFSGSGSGTDFTLTISSLQPEDFATYYCQQYNSYPYTFGQGTKLEIKR
On to B1, for which, in experiment [1], the “IC50, T-cell activation assay, donor 1” value was 69.1 nM; the “IC50, T-cell activation assay, donor 2” value was 57.2 nM; the “IC50, T-cell activation assay, donor 3” value was 35.1 nM; the “IC50, T-cell activation assay, donor 4” value turned out to be 5.6 nM. In [2], the “IC50, T-cell activation assay, donor 10, +10% FBS” value was determined as 203 nM; the “IC50, T-cell activation assay, donor 10, +10% HS” value stood at 161 nM; the “IC50, T-cell activation assay, donor 11, +10% FBS” value came to 61.2 nM; the “IC50, T-cell activation assay, donor 11, +10% HS” value was determined as 30.2 nM. Moreover, in experiment [2], the “IC50, T-cell activation assay, donor 12, +10% FBS” value turned out to be 22.1 nM; the “IC50, T-cell activation assay, donor 12, +10% HS” value is 42.9 nM; the “IC50, T-cell activation assay, donor 13, +10% FBS” value is 84.4 nM; the “IC50, T-cell activation assay, donor 13, +10% HS” value amounted to 120 nM.

B2: anti-OX40L benchmark Fab (Fab, V domains shown)
VH: EVQLLESGGGLVQPGGSLRLSCAASGFTFNSYAMSWVRQAPGKGLEWVSIISGSGGFTYYADSVKGRFTISRDNSRTTLYLQMNSLRAEDTAVYYCAKDRLVAPGTFDYWGQGALVTVSS
VL: DIQMTQSPSSLSASVGDRVTITCRASQGISSWLAWYQQKPEKAPKSLIYAASSLQSGVPSRFSGSGSGTDFTLTISSLQPEDFATYYCQQYNSYPYTFGQGTKLEIKR
notes: papain digest of benchmark IgG; also called LC001 Fab
Take B2: in [3], the “IC50, IL4 production, T-cell activation assay, donor 1” value amounted to 80 nM; the “IC50, IL4 production, T-cell activation assay, donor 2” value was found to be 131 nM; the “IC50, IL4 production, T-cell activation assay, donor 3” value came out at 58 nM; the “IC50, IL4 production, T-cell activation assay, donor 4” value amounted to 85 nM. Further, in [1], the “IC50, T-cell activation assay, donor 1” value was determined as 80.2 nM; the “IC50, T-cell activation assay, donor 2” value turned out to be 131 nM; the “IC50, T-cell activation assay, donor 3” value came to 57.6 nM; the “IC50, T-cell activation assay, donor 4” value worked out at 85.2 nM. In addition, the IC50 in experiment [4] stood at 1.97 nM. In addition, in experiment [5], the IC50 came out at 217 nM.

B3: OX40L041 (VHH, not shown: small tags and cut ends)
VHH: DVQLVESGGGLVQPGGSLRLSCAASRSIGRLDRMGWYRHATGEPRELVATITGGSSINYGDFVKGRFTISRDNSKNTVYLQMNSLRPEDTAVYYCNFNKYVTSRDTWGQGTLVTVSS
With B3, the “IC50, T cell assay with rec. hOX40L” value in [6] worked out at 64 nM. In addition, the IC50 in [7] stood at 0.127 nM; in experiment [8], 0.22 nM; in [9], 0.262 nM.

B4: OX40L045 (VHH, not shown: small tags and cut ends)
VHH: DVQLVESGGGLVQPGGSLRLSCAASRSIGRLDRMGWYRHATGKPRELVATITGGSSINYGDFVKGRFTISRDNSKNTVYLQMNSLRPEDTAVYYCNFNKYVTSRDTWGQGTLVTVSS
For the molecule B4, in [6], the “IC50, T cell assay with rec. hOX40L” value came to 133 nM. This molecule gave an IC50 in experiment [7] of 0.152 nM.

B5: OX40L050 (VHH, not shown: small tags and cut ends)
VHH: DVQLVESGGGLVQPGGSLRLSCAASRSIGRLDRMGWYRHRTGEPRELVATITGGSSINYADSVKGRFTISRDNSKNTVYLQMNSLRPEDTAVYYCNFNKYVTSRDTWGQGTLVTVSS
With B5, in experiment [6], the “IC50, T cell assay with rec. hOX40L” value is 43 nM. For the same molecule, the IC50 in [7] was 0.046 nM; in [8], 0.145 nM; in experiment [9], 0.164 nM.

B6: OX40L044 (VHH, not shown: small tags and cut ends)
VHH: DVQLVESGGGLVQPGGSLRLSCAASRSIGRLDRMGWYRHAPGEPRELVATITGGSSINYGDFVKGRFTISRDNSKNTVYLQMNSLRPEDTAVYYCNFNKYVTSRDTWGQGTLVTVSS
As for B6, the “IC50, T cell assay with rec. hOX40L” value in [6] is 76 nM. In [7], this molecule came in with a 50% inhibitory concentration (IC50) of 0.065 nM.

B7: OX40L047 (VHH, not shown: small tags and cut ends)
VHH: DVQLVESGGGLVQPGGSLRLSCAASRSIGRLDRMGWYRHAPGKPRELVATITGGSSINYGDFVKGRFTISRDNSKNTVYLQMNSLRPEDTAVYYCNFNKYVTSRDTWGQGTLVTVSS
For B7, in [6], the “IC50, T cell assay with rec. hOX40L” value is 126 nM. In addition, the values for the IC50 in experiment [7], in [8] and in experiment [9] were 0.269 nM, 0.735 nM and 0.557 nM, respectively.

B8: OX40L048 (VHH, not shown: small tags and cut ends)
VHH: DVQLVESGGGLVQPGGSLRLSCAASRSIGRLDRMGWYRHRTGEPRELVATITGGSSINYADFVKGRFTISRDNSKNTVYLQMNSLRPEDTAVYYCNFNKYVTSRDTWGQGTLVTVSS
In the case of B8, in experiment [6], the “IC50, T cell assay with rec. hOX40L” value turned out to be 32 nM. Moreover, the IC50 is 0.093 nM in experiment [7], 0.314 nM in experiment [8] and 0.314 nM in [9].

B9: OX40L043 (VHH, not shown: small tags and cut ends)
VHH: DVQLVESGGGLVQPGGSLRLSCAASRSIGRLDRMGWYRHRTGKPRELVATITGGSSINYGDFVKGRFTISRDNSKNTVYLQMNSLRPEDTAVYYCNFNKYVTSRDTWGQGTLVTVSS
Consider B9, for which the “IC50, T cell assay with rec. hOX40L” value in experiment [6] is 29 nM. For the same molecule, the IC50 was determined as 0.101 nM in experiment [7], 0.134 nM in experiment [8] and 0.156 nM in experiment [9].

B10: OX40L042 (VHH, not shown: small tags and cut ends)
VHH: DVQLVESGGGLVQPGGSLRLSCAASRSIGRLDRMGWYRHRPGEPRELVATITGGSSINYGDFVKGRFTISRDNSKNTVYLQMNSLRPEDTAVYYCNFNKYVTSRDTWGQGTLVTVSS
On to B10, for which the “IC50, T cell assay with rec. hOX40L” value in [6] amounted to 18 nM. This molecule also showed a 50% inhibitory concentration (IC50) in experiment [7] of 0.057 nM.

B11: OX40L046 (VHH, not shown: small tags and cut ends)
VHH: DVQLVESGGGLVQPGGSLRLSCAASRSIGRLDRMGWYRHRPGKPRELVATITGGSSINYGDFVKGRFTISRDNSKNTVYLQMNSLRPEDTAVYYCNFNKYVTSRDTWGQGTLVTVSS
As for B11, in experiment [6], the “IC50, T cell assay with rec. hOX40L” value turned out to be 57 nM. The IC50 is 0.084 nM in experiment [7], 0.256 nM in [8] and 0.221 nM in experiment [9].

B12: OX40L049 (VHH, not shown: small tags and cut ends)
VHH: DVQLVESGGGLVQPGGSLRLSCAASRSIGRLDRMGWYRHRTGEPRELVATITGGSSINYGDSVKGRFTISRDNSKNTVYLQMNSLRPEDTAVYYCNFNKYVTSRDTWGQGTLVTVSS
Take B12: in experiment [6], the “IC50, T cell assay with rec. hOX40L” value was determined as 12 nM. Further, half-maximal inhibition in [7] (IC50) required 0.035 nM.

B13: OX40L024 (VHH, not shown: small tags and cut ends)
VHH: EVQLVESGGGLVQPGGSLRLSCAASGRTFSSIYAKGWFRQAPGKEREFVAAISRSGRSTSYADSVKGRFTISRDNAKNTVYLQMNSLRPEDTAVYYCAAVGGATTVTASEWDYWGLGTLVTVSS
B13: the “IC50, T cell assay with rec. hOX40L” value in experiment [10] was 1.54 nM. Besides, the IC50 in experiment [11] and in experiment [12] was 0.07 nM throughout.

B14: OX40L025 (VHH, not shown: small tags and cut ends)
VHH: EVQLVESGGGLVQPGGSLRLSCAASGRTFSSIYAKGWFRQAPGKEREFVAAISRSGRSTSYADSVKGRFTISRDNSKNTVYLQMNSLRPEDTAVYYCAAVGGATTVTASEWDYWGLGTLVTVSS
B14: the “IC50, T cell assay with rec. hOX40L” value in experiment [10] turned out to be 1.15 nM. Also, the IC50 amounted to 0.06 nM in experiment [11] and 0.05 nM in experiment [12].

B15: OX40L075 (VHH, not shown: small tags and cut ends)
VHH: EVQLVESGGGLVQPGGSLRLSCAASGRSFSTYIMGWFRQAPGKEREFVATISRSGITTRSADSVKGRFTISRDNSKNTVYLQMNSLRPEDTAVYYCAAGPYVEQTLGLYQTLGPWDYWGQGTLVTVSS
Regarding B15, the results for the concentration for half-maximal inhibition (IC50) in experiment [11] and in experiment [12] were 0.31 nM and 1.9 nM, respectively.

Usually IC50 stands for the point on the concentration scale where inhibition reaches its midpoint.
